Experimental data taken from the PETadex activity labels (doi:10.1038/s41467-025-61599-z).

Legend:
pNPB = assay: Proxy for plastic degradation [Absorbance @ 430nm] (min⁻¹); conditions: pH 8; part of the chain shown
PET [1] = assay: Proxy for plastic degradation [Released monomer concentration (HPLC/LC-MS) (MHET+TPA)]; conditions: pH 9, part of the chain shown
PET [2] = assay: Proxy for plastic degradation [kcat/Km (catalytic efficiency)] (mM⁻¹s⁻¹); conditions: pH 8; part of the chain shown
[3] = Proxy for plastic degradation [Released monomer concentration (HPLC/LC-MS) (TPA+MHET)]; conditions: part of the chain shown
PET [4] = assay: as above; conditions: part of the chain shown

Row | Sequence | Proxy for plastic degradation (pNPB) | Proxy for plastic degradation (PET [1]; 30 °C) [µM] | Proxy for plastic degradation (PET [1]; 40 °C) [µM] | Proxy for plastic degradation (PET [1]; 50 °C) [µM] | Proxy for plastic degradation (PET [1]; 55 °C) [µM] | Proxy for plastic degradation (PET [1]; 60 °C) [µM] | Proxy for plastic degradation (PET [2]) | Proxy for plastic degradation ([3]; 30 °C) [µM] | Proxy for plastic degradation ([3]; 40 °C) [µM] | Proxy for plastic degradation ([3]; 60 °C) [µM] | Proxy for plastic degradation (PET [4]; 30 °C) [µM] | Proxy for plastic degradation (PET [4]; 40 °C) [µM] | Proxy for plastic degradation (PET [4]; 55 °C) [µM] | Proxy for plastic degradation (PET [4]; 60 °C) [µM] | Proxy for plastic degradation (PET [4]; pH 9, 50 °C, 24 h) [µM] | Proxy for plastic degradation (PET [4]; pH 9, 50 °C, 48 h) [µM] | Proxy for plastic degradation (PET [4]; pH 9, 50 °C, 72 h) [µM]
1 | AGFEKGPDPTTASVTADRGSYDIAQVDVPKGSGTGFADGTIYY | 16200 | 14.6 | 14.2 | 14.1 | 14.4 | 15 | – | – | – | – | – | – | – | – | – | – | –
2 | CFGGGDPDPSPEGQALGVPGDFEICSYEANLENDGYASARMTYPCDLS | 24400 | 9.91 | 9.79 | 11 | 10.1 | 10.5 | – | – | – | – | – | – | – | – | – | – | –
3 | DEIGQAPTAANITGDGSFSTSSSAIFGQSGFGGGTAYYPNTAGKYPVVAF | 34300 | 65.5 | 759 | 3600 | 596 | 167 | 0.263 | 65 | 759 | 167 | 65.5 | 759 | 167 | 104 | 742 | 1640 | 3600
4 | DPWDAPGPYATAVQIGAVNTLYYPRDIASSPRRHPVIVWGNGT | 21900 | 13 | 13.4 | 14.2 | 13.4 | 14.1 | – | – | – | – | – | – | – | – | – | – | –
5 | ESETTAAAVSSRYYEETGPHAVTVEQGGPDHTLYYPSDLGAGGT | 32300 | 13.9 | 14.7 | 10.6 | 15.5 | 15.3 | – | – | – | – | – | – | – | – | – | – | –
6 | FGNNGGGGGGEDNVFAEPGDFDVVTEPGGRDCTIFRPEQLGDDH | 23500 | 14 | 13.8 | 15.8 | 14.4 | 14.9 | – | – | – | – | – | – | – | – | – | – | –
7 | GDPPAVRTVPAAAAAPVDWSKTGPHQVKVDKADAHTIYRPSDLG | 44800 | 12.7 | 12.6 | 15.7 | 16 | 16.4 | – | – | – | – | – | – | – | – | – | – | –
8 | LDSPYQRGPDPTEASVKAIAGPFAVDQVKATGHTGFGSGTIFYP | 41400 | 11.2 | 22.8 | 44.2 | 26.1 | 19.7 | – | – | – | – | – | – | – | – | – | – | –
9 | NNPGGGGGTAPDTGTGFPGVSNFSASGSFATTSGSAGASCTVFRPST | 25400 | 8.31 | 9.03 | 9.57 | 9.09 | 9.47 | – | – | – | – | – | – | – | – | – | – | –
10 | QDNSDGRYRPEGRTFARGAANLFDDRLFEARTYVTGTDVA | 49500 | 15.4 | 15.5 | 15.5 | 16.6 | 16.1 | – | – | – | – | – | – | – | – | – | – | –
11 | QTNPYARGPNPTAASLEASAGPFTVRSFTVSRPSGYGAGTVYY | 24900 | 17.3 | 64.7 | 46.9 | 27.4 | 17.4 | – | – | – | – | – | – | – | – | – | – | –
12 | TPEFKPQPGPLSIKSAAAISFRVEDQAKDLQIRVTYPDGPGPWP | 16800 | 15.7 | 12.8 | 17.3 | 17.3 | 17.2 | – | – | – | – | – | – | – | – | – | – | –
13 | VTKGPDPSAAEVAKVTGSYAVTETKVDDAASTKFGPATV | 31400 | 15 | 12.8 | 15.3 | 16.2 | 16.3 | – | – | – | – | – | – | – | – | – | – | –
